Test results from the DeepSol protein solubility set.

Assay: soluble on expression in E. coli; label from the status in PepcDB or PDB records

| Sequence | soluble on expression in E. coli |
| --- | --- |
| MSLVPHHQPCPPASSLSAGPRGGVIMLILKNVTAVQLHPAKVQEGVDIAIENDVIVAIGDALTQRYPDASYKEMHGRIVMPGIVCSHNHFYSGLSRGIMANIAPSPDFISTLKNLWWRLDRALDEESLYYSGLICSLEAIKSGCTSVIDHHASPAYIGGSLSTLRDAFLKVGLRAMTCFETTDRNNGIKELQEGVEENIRFARQIDEAKKAATEPYLVEAHIGAHAPFTVPDAGLEMLREAVNATGRGLHIHAAEDLYDVSYSHHWYGKDLLARLAQFDLIDSKTLVAHGLYLSKDDIALLNQRDAFLVHNARSNMNNHVGYNHHLSDIRNLALGTDGIGSDMFEEMKFAFFKHRDAGGPLWPDSFAKALTNGNELMSRNFGAKFGLLEAGYKADLTICDYNSPTPLLADNIAGHIAFGMGSGSVHSVMVNGVMVYEDRQFNFDCDSIYAQARKAAASMWRRMDALAEGHHHHHH | soluble |
| MLPAVDDRCSGGYAGDVVADETIIDLAGPSEGLGVRPDKQRAAAYAGAYYIRDKTHQLGTGEKMREVTKRGFGIGVTAVSRVGSADDLYSVSPVITAISIDKPSPGSTVALGRALQMHQANGFAASVKTKANARLPYLCVDMGYSVRPDFTTVVHDHGFAPVMRYPVSRQTVWASEKPEFGSQSPGPVQINSAFYCPAALPLARQRRLVRRLNELLDEQDGFEAHDQALQKLLPLLMGTNSRPLKFVSKRKRSPETIPTYQIDLVCPAVQGRVKCPLKPESLIIAFDQPEVKPTWSADRYRCCSKSQIRHTYSSEQWKLAQWGMVPGSWEHAIYYEAARSLTEQRFSIMKSQHLSGREHLKWSPRREPMISVIIALWIAATNLAIQDSHVAKMPRPSSIKKQKRRLERDLGRALMSTPPRT | not soluble |
| MSLSSRNSTPLRQFGYEFFMTPLDVSKLVLPVSENYKLGPGDEVIIYIVGLPSNQEIPPVIKTIVDREGNISIPNLGVFNVWGLTLKETEELLRQELGLDLKVTVGEIRTFVIYVAGEVNRPGTHVATAVNTVIDALSIAGGVKKTGSLRNIILTRKTPSGLKTYNIDLYDVFIKGKPIDLTLRDGDTILVKPIGPTVAIAGEVKRPAIYEIKGGETIKDLIELAGGLLPSSYQYKVILQRYENGKLRIIEDSLTNKAFMNENLRDGDLVLIKKSADIPENSYSIEGYVTLPGVYEYKEGLKLSDILNPDLFFKDTNLKFAVLVRQYPKGSIPKYIAFSPEKVLTGKEDMELKPYDRLIFFKLGQSEGHHHHHH | soluble |
| GMSKIFNEELAVIEAAAIAYLTAFNRADIPAVIATYTDDGVLMGPGRPAAVGKDELAEVYLSVFETVGFDMAYEIKEVVQTSADWAFVRSATEGTETNKATGVVTPAAYQELFLLRKSATGSWQTARYCTSKISP | soluble |
| AHHHHHHGSRMRQEERKFVELVERIMERWGYDRTGGKIYGILLLSNKPLTISELSKITGLSRSSVSVALSKLTREYLVTYTKEKKTKYFYAVPAFLEKFLKQPKEILEREIKPLKEIVVKLAEKSNEEEKARFEAILSDLLTLECVLKKIIELEEKESECLKK | not soluble |
| MLALGKLLELTLAGREPAEKTQLTVEGVRMRWLAEGALEVRPPQARDNGTDLLLSAGIHGNETAPIELLDELIRSIARGDLKPRARILFLFGNPAAMRLGARYVEQDVNRLFNGRHEQSGGAEALRACELERLAASFFSLPDRYRLHYDLHTAIRGSKIEQFALYPWKEGRQHSRFELARLRAAGISAVLLQNKPSIVFSAYTYEQLGAEAFTLELGKARPFGQNRHVNLAPLRLRLEQIIEGSEPQPDERLEGLQLFSVAREVIKRSDAFTFNLADDVENFSELEKGYVLAEDVSDSRWVVKEEGARIIFPNPKVKNGLRAGIVIVPADADGLGLEHHHHHH | not soluble |
| IDQLNRNQLDLGMCYVDQVNTAYFDVIELDSTKLGVLFDERHFDFAESEVLWESLNNIPLGLLSKGMHYRHSIDLSFVSKGLVPQTVIESNSTFHLIQAVTSGLCCAIMPLNCGLEELNDTLRIIPIEEAAVHAPLGLLKRKQEPFSALTDQCFAEAKNIFNR | not soluble |
| MLPLIKRLFSSAPKDGEGAQKKWPFSYVVVLLLAGVALMAASHWANSGEEAEAKPSAGQPSAPAEPAFLASKETKEKVIAAYEERYEKELKAALEAIEGVDDVTVVVNLDSTELKLYEKKRSTQQQTTEESDKEGGKRTIENESTNEEVIIIHNGEEETPLVVATKKPDIRGVLVVAKGADNLQIKKWIVEAVTRVLNVPSYRVAVLPKK | not soluble |
| MAEASSANLGSGCEEKRHEGSSSESVPPGTTISRVKLLDTMVDTFLQKLVAAGSYQRFTDCYKCFYQLQPAMTQRIYDKFIAQLQTSIREEISDIKEEGNLEAVLNALDKIVEEGKVRKEPAWCEAQRCRVQQRCSLCVQAGGQRGSEETQALPVSMAGSPSPLPGSPGAQEGGV | not soluble |
| MRQRIAVVGGGPAGLAFARVMHRHDRSVTVLERDPAPDARPPGGTLDLHEGLGRLAMDKAGLSAEFEALSRPEGQAMRILDTDGTVLRDWRPDPAERANPEIDRGQLRDLLLGPLDVRWGQGVTKVVPGGRDGVLVHFEDGRQEAFDLVVGADGAWSRTRPAVSPVTPHYTGVTSVETSLDDVDTRHPDLARLVGDGSVAVYGVNRAVVAQRNSGGHVKVHAQFRAPLDWHAHLDLGDAEAVRSRLLTLFDGWTAPVLDLLRHGTGFVHRPLHVLPVSHTWTHVPGVTLLGDAAHLMPPLGAGANLALLEGAELAESLADGSADPDDAVRAFEERMWARAGRWAKITAAGLERLVSPDPAAALAVFDQVQPSRLEHHHHHH | not soluble |
| MTTVIVANDLVGFGKVALTSSLLPIMSACQTEVLPLPTVLLSSHTGEFDNIYVRYLTVDMQGFCGQWKRLDFRVDGLVGGYFKSEEELGLVSQCLTKKRFLFLLDPIMGDNGRLYQGFDRDYVEAMKDFCQQADVIIPNLTEAALLTGSPYLEEGSYDMTTIENLLRNLSRLGPRKVILTGISFETEKIGLAYFDKETNQVIYRMRKRYQSHFYGSGDLLTAILSAGYFHNLDFLKVCDLALDFLNKVLLFTLSSGRPLKYGLCYEPLYRLFI | soluble |
| MGSDKIHHHHHHMSHVSLKDVQVLAPNFKRRLSGVTSTIVQLIPVQNRLGQKVGTIGPGLPPHLPHVRFRDLWRLWQNGPSGGPRIWHARRNLEMLPGIFMRDVLRMKVKLLFTSAAQRRHSAYTRFLISKMDAVVATSTRSGSFLEVPHRVVMHGVDTELFHPATGPEDTIAATGLPGHYLLGCFGRVRHQKGTDLFVRAMIELLPHYPQWTAVVSGRVTAEHKAFGDTLKADVAAAGLTDRIIFQGEVDDIKPWYRRLTLYVAPSRNEGFGLTPLEAMASETAVVASNAGAYEEMIVTGETGWVVGAGDYASLRDAIKTYLADPALAKAHASAGLAHVRSTFPLEKEATCLGEVYEALQRG | not soluble |
| MNKLQSYFIASVLYVMTPHAFAQGTVTIYLPGEQQTLSVGPVENVAQLVTQPQLRDRLWWPGALLTDSAVKAKALKDYQHVMAQLASWEAEADDDVAATIKSVRQQLLNLNITGRLPVKLDPDFVRVDENSNPPLVGNYTLYTVQRPVTITLLGAVSGAGQLPWQAGRSVTDYLQDHPRLAGADKNNVIVITPEGETVVAPVALWNKRHVEPPPGSQLWLGFSAHVLPEKYADLNDQIVSVLTQRVPD | soluble |
| MGSDKIHHHHHHKRQVSGDESYLDAAPLAELHAPAGMILPITTGDYVIPVTKGSGAVGKALDIRPPAQPLALVSGARTQFSGDTATLLVENGRSSTLWPQVVSVIQAKNYPIEKRDDASQTLTTDWVNWNRLDEDEQYRGRYQISVKPQGYQQAVTVKLVNLEQAGKPVADAASLQRYSTEMMNVISAGLDKTATDAANAAQNRSAATMDVQSAADDTGLPMLVVRGPFNLVWQRLPAALEKVGMKVTDSTRSQGSMAVTYKPLSDSDWRDLGASDPGLASGDYKLQVGDLDNRSSLQFIDPKGHTLTQSQNDALVAVFQAAFNK | not soluble |
| MADEAQAPPAEGAPPAEGEAPPPAEGAEGAVEGGEAAPPAEPAEPIKHSYTLFYFNVKALAEPLRYLFAYGNQEYEDVRVTRDEWPALKPTMPMGQMPVLEVDGKRVHQSISMARFLAKTVGLCGATPWEDLQIDIVVDTINDFRLKIAVVSYEPEDEIKEKKLVTLNAEVIPFYLEKLEQTVKDNDGHLALGKLTWADVYFAGITDYMNYMVKRDLLEPYPALRGVVDAVNALEPIKAWIEKRPVTEV | soluble |
| MLWRKRLFAHLYPGLSARHEALVAERKRALFREALRRARPERVLEIGPGPGTNLAHLPEGVAYLALEPNPFFHPRLREEARKRGLALTLLPGRAEAIPLPGGSVDLVVATLVLCSVADPEKAIEEVHRVLRPGGAYLFLEHVAAPKRTPLRFLQEVATPFFAFFGDGCHPNRETLALIQARFPRVEAEAFPLPLPVVAPHVAGLAFKEGGSGGSLQGPWA | soluble |
| GPGSMSIHQTKVCSVNEPLSNPDDSALEYCVEAQSPVNRTTSTWEFRSKLFPHAFAAVLDTDLSESETTQRELAEWTRKRCRNYERQGDILRSQLGVLVSSGAANGKRSDADDGDDEAFLVGLGEWSLQESSSQYLNSAKKKKCHRQLRCKDSYESALLLERQWSERHAVSLKHSCMKGAHPTPAAQNFELGCAKDLCRDASSVEIHSITPAASVVAAEKTRSVTACEPPTEQERKKNRGVASEHEGTQNFAEHLVVQYFIPDGSEAESGKSSNDTRGGACGRGLYSMPLSVFRYHYPQLLLDFLLQHSVVMESS | not soluble |
| MGSDKIHHHHHHMKLIESVPNFSEGRRKEVVEKIVAEAKKYDRVWVLDWSMDADHNRSVITLVGEPENLINALFDMTKKAAELIDLRNHTGQHPRMGAADVIPLVPLYNTTMEECVEYSKILGRRIGEELGIPVYLYEKSATRPERQNLADIRKGEFEGFFEKIKDPLWKPDFGPDRVHPTAGVTAVGAREFLIAFNVNLGTRDVKIAEKIARAIRFSSGGLRYVKAIGVDLKGRGVVQVSINITNHKKTPLYRVFELIKMEAERYGVPVLGSEIVGLFPLESLLKTVSYYLRTDLNAKKVIESNLLEILVRESEK | not soluble |
| LNKTLFLGYAFLLTMATTSDKLASRSKLPDGPTGSSEEEEEFLEIPPFNKQYTESQLRAGAGYILEDFNEAQCNTAYQCLLIADQHCRTRKYFLCLASGIPCVSHVWVHDSCHANQLQNYRNYLLPAGYSLEEQRILDWQPRENPFQNLKVLLVSDQQQNFLELWSEILMTGGAASVKQHHSSAHNKDIALGVFDVVVTDPSCPASVLKCAEALQLPVVSQEWVIQCLIVGERIGFKQHPKYKHDYVSH | soluble |
| MGKLYVVPTPVGNLEDMTFRAIKVLKEADLILAEDTRTSGILLKHFEIKNVMQSHHKFNEHKTVESVVNRIKAGETIALISDAGTPGISDPGFLVVRECVRNGIEVQCLPGA | not soluble |
| MSLTTMKEIAEQTGVSISTVSLVLNGRDEGRVNPALAKLVRNKATELGYKINPLARSLRTNKTRILGFISEEVATTPYAGGIILGAQDAASAYGYMLFTVSTDGKASEENEIATLKRYGVDGFFYSKMSNRIAHVPESLSDYPVVMVDATDYENKVPSVEPDEFMIGYDATIRLLQADCKRIAYVGCAENMIAQDGRLAGYCTALQEAGRAFNPSLVCNVMNDGPALRAVNKLFDDEHPDGFFCFNDARAWYVYECAARRGLTVGKDISVVGVDNHRVFAETLEPQLTTVELPHYEMGYWSACKLISMIEGKDVDTSEGHHHHHH | not soluble |
| MGSDKIHHHHHHMTQPPQSLQIKLANPRGFCAGVDRAISIVERALELFSPPIYVRHEVVHNRYVVQNLKDRGAVFVDELDQVPDDSIVIFSAHGVSQAVRAEAKKRGLRVFDATCPLVTKVHLQVTRASRKGIECILIGHAGHPEVEGTMGQYDNPEGGVLLVESPADVEALVVKDPDNLCFVTQTTLSMDDTADVIAALQKRFPSIQGPRKDDICYATQNRQDAVRNVADDVDLFIVVGSKNSSNSNRLMELAIKKGTQSYLVDNADDIKPEWFNDIEKVAVTAGASAPEVLVQQVIDAIAKLAPSVITEVEGRKEDTVFAVPAELR | not soluble |
